# Reference: EP4610267A1, “CYCLIC DINUCLEOTIDES AND CONJUGATES THEREOF WITH ANTIBODIES” (priority 2024, dated 2025)
# T1: TROP2 (UniProt P09758 27-323, limits assumed)
# T1 sequence (looked up): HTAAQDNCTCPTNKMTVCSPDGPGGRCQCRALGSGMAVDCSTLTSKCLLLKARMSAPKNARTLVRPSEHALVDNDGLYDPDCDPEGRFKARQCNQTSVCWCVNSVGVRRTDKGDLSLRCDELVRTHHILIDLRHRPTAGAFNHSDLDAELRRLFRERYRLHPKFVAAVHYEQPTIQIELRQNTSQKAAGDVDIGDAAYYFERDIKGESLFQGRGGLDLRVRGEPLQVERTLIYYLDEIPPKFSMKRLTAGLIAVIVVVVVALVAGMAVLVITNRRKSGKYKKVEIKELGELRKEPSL
# B1: isotype mAb Libivirumab (anti HBsAg mAb) conjugated with Compound 3.4 (antibody, human IgG1, kappa, V domains shown)
# VH: QVQLVESGGGVVRPGRSLRLSCAASGFAFSDYSINWVRQAPGKGLEWVAIISYDGRITYYRDSVKGRFTISRDDSKNTLYLQMNSLRTEDTAVYYCARQYYDFWSGSSVGRNYDGMDVWGLGTTVTVSS
# VL: DIVMTQSPLSLSVTPGEPASISCRSSQSLLHRSGNNYLDWYLQKPGHSPQLLIYVGSNRASGVPDRFSGSGSGTEYTLKISRVEAEDVGVYYCMQALQTPRTFGQGTKLEIKR
# B2: isotype mAb Libivirumab (anti HBsAg mAb) conjugated with Compound 3.3 (antibody, human IgG1, kappa, V domains shown)
# VH: B1 VH
# VL: B1 VL
# B3: isotype mAb Libivirumab (anti HBsAg mAb) conjugated with Compound 3.13 (antibody, human IgG1, kappa, V domains shown)
# VH: B1 VH
# VL: B1 VL
# B4: anti-TROP2 mAb5 (Sacituzumab, heavy chain S375C, light chain V110C) conjugated with Compound 3.3 (antibody, human IgG1, V domains shown)
# VH: QVQLQQSGSELKKPGASVKVSCKASGYTFTNYGMNWVKQAPGQGLKWMGWINTYTGEPTYTDDFKGRFAFSLDTSVSTAYLQISSLKADDTAVYFCARGGFGSSYWYFDVWGQGSLVTVSS
# VL: DIQLTQSPSSLSASVGDRVSITCKASQDVSIAVAWYQQKPGKAPKLLIYSASYRYTGVPDRFSGSGSGTDFTLTISSLQPEDFAVYYCQQHYITPLTFGAGTKVEIKR
# modifications: Compound 3.3 on engineered C110 (EU numbering); Compound 3.3 on engineered C375 (EU numbering); DAR 3.7 for the whole antibody
# B5: anti-TROP2 mAb5 (Sacituzumab, heavy chain S375C, light chain V110C) conjugated with Compound 3.13 (antibody, human IgG1, V domains shown)
# VH: B4 VH
# VL: B4 VL
# modifications: Compound 3.13 on engineered C110 (EU numbering); Compound 3.13 on engineered C375 (EU numbering); DAR 3.3 for the whole antibody
# B6: anti-TROP2 mAb5 (Sacituzumab, heavy chain S375C, light chain V110C) conjugated with Compound 3.16 (antibody, human IgG1, V domains shown)
# VH: B4 VH
# VL: B4 VL
# modifications: Compound 3.16 on engineered C110 (EU numbering); Compound 3.16 on engineered C375 (EU numbering); DAR 3.3 for the whole antibody
# B7: anti-TROP2 mAb5 (Sacituzumab, heavy chain S375C, light chain V110C) conjugated with Compound 3.17 (antibody, human IgG1, V domains shown)
# VH: B4 VH
# VL: B4 VL
# modifications: Compound 3.17 on engineered C110 (EU numbering); Compound 3.17 on engineered C375 (EU numbering); DAR 3.6 for the whole antibody
# B8: anti-TROP2 mAb5 (Sacituzumab, heavy chain S375C, light chain V110C) conjugated with Compound 3.18 (antibody, human IgG1, V domains shown)
# VH: B4 VH
# VL: B4 VL
# modifications: Compound 3.18 on engineered C110 (EU numbering); Compound 3.18 on engineered C375 (EU numbering); DAR 3.6 for the whole antibody
# Legend:
# [1] = Compound-to-antibody ratio (DAR) of antibody CDN conjugates by LC-MS
# Description: Antibody CDN-conjugates were analyzed to determine the extent of conjugation. A compound-to-antibody ratio was extrapolated from LC-MS data for reduced samples. LC-MS allows quantitation of the average number of molecules of linker-payload attached to an antibody in a conjugate sample. Mass spectral data enables identification of the component species in the mixture, e.g., LC, LC+1, LC+2, HC, HC+1, HC+2, etc. From the average loading on the LC and HC chains, the average compound to antibody ratio can be calculated for an antibody conjugate. A compound-to-antibody ratio for a given conjugate sample represents the average number of compound (linker-payload) molecules attached to a tetrameric antibody containing two light chains and two heavy chains. The samples were reduced with 40 mM TCEP or 5.5 mM DTT, injected onto a MassPREP Micro Desalting column (20 µm, 5-mm by 2.1-mm ID, Waters) equilibrated in 0.1% formic acid (FA) in H2O and eluted by a fast gradient (4min) to 0.1% FA in acetonitrile. The separation was carried out by AQUITY UPLC I-Class system (Waters) and was on-line coupled to Mass Spectrometer Synapt G2 (Waters) to acquire mass spectra using electrospray ionization in positive mode. The TOF mass range was set from m/z 500 to 4000. The raw spectrum was subtracted and deconvoluted (MaxEnt 1, Waters) to produce the final spectrum. Conjugates were profiled using analytical size-exclusion chromatography on Superdex 200 equilibrated in PBS pH7.4; aggregation was analyzed based on analytical size exclusion chromatography.
# [2] = In vitro mouse plasma stability of antibody-CDN conjugates (payload CDN 2.2 retention on mAb by LC-MS); assay type: in vitro ADME; conditions: retention of CDN 2.2 on mAb
# Description: (§2) In vitro plasma stability of ADC was performed by spiking mouse plasma with antibody-CDN conjugates (final concentration 100µg/mL). Samples were incubated in a 37°C incubator with 5% CO2, aliquots were taken at various time points and stored frozen for analysis.
# (§3) Briefly, 25µL of plasma samples were incubated with biotinylated anti-human Fcy fragment mAb (final concetration 0.18mg/mL, Jackson ImmunoResearch cat # 109-065-098) for 30 min and then mixed with 30 µL Dynabead MyOne Streptavidin T1 (Invitrogen cat # 65604D) and 70 µL PBS. After 1 hour incubation, the beads were separated on a magnet, washed with PBS containing 0.05% Tween20, PBS and water, and ADCs were eluted in the presence of 0.2% of formic acid in water. Eluate was neutralized by adding ammonium formate (400mM final concentration) and ADCs were reduced with TCEP (40mM final concentration) for 30 minutes at room temperature. Samples were then measured by LC-MS and analyzed for compound-to-antibody ratio as described above.
# STING REF = target: T2, STING REF (Homo sapiens, UniProt Q86WV6); test: 293T STING digitonin reporter assay (REF haplotype); assay type: cell-based; conditions: digitonin permeabilised 293T reporter cells
# T2 construct: expressed in transfected cells
# T2 sequence (Q86WV6 whole entry): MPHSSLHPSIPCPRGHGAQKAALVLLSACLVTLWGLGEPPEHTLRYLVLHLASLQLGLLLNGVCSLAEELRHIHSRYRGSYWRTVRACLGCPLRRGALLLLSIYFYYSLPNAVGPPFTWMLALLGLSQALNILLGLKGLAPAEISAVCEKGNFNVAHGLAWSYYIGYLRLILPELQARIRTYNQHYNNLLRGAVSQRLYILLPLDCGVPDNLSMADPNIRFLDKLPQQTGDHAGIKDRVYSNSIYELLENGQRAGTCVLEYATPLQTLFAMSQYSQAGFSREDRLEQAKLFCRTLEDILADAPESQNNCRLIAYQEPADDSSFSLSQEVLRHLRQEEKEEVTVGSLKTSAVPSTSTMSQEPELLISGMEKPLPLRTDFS
# Description: (§1) Digitonin Assay with 293T Reporter Cells. The generation of 293T reporter cells stably expressing different STING protein haplotypes (WT, HAQ, REF, AQ, or Q) was described previously (Novotna et al, J. Med. Chem. 2019,62, 10676). The cells were seeded at a density of 250 000 cells per cm^2 into 96 well white poly(D-lysine) coated plates in 100 µL of DMEM with high glucose supplemented with 10% heat inactivated FBS. Next day, the medium was removed, and compounds were added in 3-fold serial dilutions in a digitonin buffer containing 50 mM HEPES (pH 7.0), 100 mM KCl, 3 mM MgClz, 0.1 mM DTT, 85 mM sucrose, 0.2% (w/w) BSA, 1 mM ATP, 0.1 mM GTP, and 10 µg/mL digitonin A. After 30 min incubation at 37 °C with 5% CO2, the digitonin buffer was removed, cells were washed once with 100 µL of the cultivation medium, and 100 µL of fresh medium was added to each well. The plates with cells were further incubated for 5 h at 37 °C with 5% CO2. Thereafter, 50 µL of the medium was removed, and 30 µL of Bright-Glo Luciferase Assay System reagent was added to each well. […] Nonlinear regression curve fit with standard slope was used for EC50 value calculations. The EC50 value represents CDN concentration that gives half-maximal response of firefly luciferase in the 293T reporter assay.
# STING AQ = target: T3, STING AQ (Homo sapiens, UniProt Q86WV6, G230A/H232R/R293Q); test: 293T STING digitonin reporter assay (AQ haplotype); assay type: cell-based; conditions: digitonin permeabilised 293T reporter cells
# T3 construct: expressed in transfected cells
# T3 sequence (Q86WV6 whole entry G230A/H232R/R293Q): as the sequence (Q86WV6 whole entry) above, with G230A, H232R, R293Q counted along it
# Description: as §1
# STING HAQ = target: T4, STING HAQ (Homo sapiens, UniProt Q86WV6, G230A/H232R/R293Q/R71H); test: 293T STING digitonin reporter assay (HAQ haplotype); assay type: cell-based; conditions: digitonin permeabilised 293T reporter cells
# T4 construct: expressed in transfected cells
# T4 sequence (Q86WV6 whole entry R71H/G230A/H232R/R293Q): as the sequence (Q86WV6 whole entry) above, with R71H, G230A, H232R, R293Q counted along it
# Description: as §1
# STING WT = target: T5, STING WT (Homo sapiens, UniProt Q86WV6, H232R); test: 293T STING digitonin reporter assay (WT haplotype); assay type: cell-based; conditions: digitonin permeabilised 293T reporter cells
# T5 construct: expressed in transfected cells
# T5 sequence (Q86WV6 whole entry H232R): as the sequence (Q86WV6 whole entry) above, with H232R counted along it
# Description: as §1
# STING Q = test: 293T STING digitonin reporter assay (Q haplotype); assay type: cell-based, human; conditions: digitonin permeabilised 293T reporter cells
# Description: as §1
# [3] = In vitro mouse plasma stability of antibody-CDN conjugates (payload CDN 2.2 retention on mAb by LC-MS); assay type: in vitro ADME
# Description: as §2, §3
# Her2 = Her2 (UniProt P04626); test: cell-based or functional assay
# TROP2 = target: T1, TROP2; test: cell-based or functional assay
# [4] = compound conjugated to anti Her2 mA2 via interchain cysteines
# [5] = monoclonal antibody: anti TROP2 mA5, 37°C
molecule,measurement,setting,value
"4-((S)-2-((S)-2-(2-(2,5-dioxo-2,5-dihydro-1H-pyrrol-1-yl)acetamido)-3-methylbutanamido)-5-ureidopentanamido)benzyl (2-(((9-((6R,8R,9S,13aR,15R,16R,16aR,17R)-16,17-difluoro-3,11-dimercapto-3,11-dioxido-8-(6-oxo-1,6-dihydro-9H-purin-9-yl)decahydro-6,9-methanofuro[3,2-m][1,3,6,9,12]pentaoxa[2,10]diphosphacyclopentadecin-15-yl)-9H-purin-6-yl)carbamoyl)oxy)ethyl)(methyl)carbamate [Compound 3.3]",Drug Antibody ratio (DAR),[1]; [4],3.7
same,Drug Antibody ratio (DAR),[1]; compound conjugated to isotype mAb (Table 18),4.0
same,Mouse plasma T ½,"[2]; monoclonal antibody: anti Her2 mA2, 37°C",>15 days
same,Mouse plasma T ½,[2]; [5],>15 days
"4-((S)-2-((S)-2-(2-(2,5-dioxo-2,5-dihydro-1H-pyrrol-1-yl)acetamido)-3-methylbutanamido)-5-ureidopentanamido)benzyl (9-((6R,8R,9S,13aR,15R,16R,16aR,17R)-16,17-difluoro-3,11-dimercapto-3,1 1-dioxido-8-(6-oxo-1,6-dihydro-9H-purin-9-yl)decahydro-6,9-methanofuro[3,2-m][1,3,6,9,12]pentaoxa[2,10]diphosphacyclopentadecin-15-yl)-9H-purin-6-yl)carbamate [Compound 3.13]",Mouse plasma T ½,[2]; [5],9.6 days
"Nc1ncnc2c1ncn2[C@@H]1O[C@@H]2OCP(=O)(S)O[C@@H]3[C@H](F)[C@@H](COP(=O)(S)OC[C@H]2[C@H]1F)O[C@H]3n1cnc2c(=O)[nH]cnc21 (single isomer, unassigned) [Compound 2.1]",EC50,STING REF,140 nM
same,EC50,STING AQ,180 nM
same,EC50,STING HAQ,180 nM
same,EC50,STING WT,30 nM
same,EC50,STING Q,350 nM
"CC(C)[C@H](NC(=O)CN1C(=O)C=CC1=O)C(=O)N[C@@H](CCCNC(N)=O)C(=O)Nc1ccc(COC(=O)N(C)CCOC(=O)Nc2ncnc3c2ncn3[C@@H]2O[C@H]3COP(=O)(S)O[C@@H]4[C@H](F)[C@@H](COP(=O)(S)OC[C@H]3[C@H]2F)O[C@H]4n2cnc3c(=O)[nH]cnc32)cc1 (stereo partly drawn) [Compound 3.3, 4-((S)-2-((S)-2-(2-(2,5-dioxo-2,5-dihydro-1H-pyrrol-1-yl)acetamido)-3-methylbutanamido)-5-ureidopentanamido)benzyl (2-(((9-((6R,8R,9S,13aR,15R,16R,16aR,17R)-16,17-difluoro-3,11-dimercapto-3,11-dioxido-8-(6-oxo-1,6-dihydro-9H-purin-9-yl)decahydro-6,9-methanofuro[3,2-m][1,3,6,9,12]pentaoxa[2,10]diphosphacyclopentadecin-15-yl)-9H-purin-6-yl)carbamoyl)oxy)ethyl)(methyl)carbamate]",attachment to anti Her2 mAb2 in mouse plasma,[3]; attached to anti Her2 mAb2 via interchain cysteines (Fig. 3),stable over period up to 15 days
same,retention on anti-TROP2 mAb5,[3]; attached to engineered light chain V110C and heavy chain S375C of mAb5 (Fig. 4),excellent retention
"(2S)-N-((2S)-1-((4-((((6R,8R,9S,13aR,15R,16R,16aR,17R)-15-(6-amino-9H-purin-9-yl)-16,17-difluoro-3-mercapto-3,11-dioxido-8-(6-oxo-1,6-dihydro-9H-purin-9-yl)decahydro-6,9-methanofuro[3,2-m][1,3,6,9,12]pentaoxa[2,10]diphosphacyclopentadecin-11-yl)thio)methyl)phenyl)amino)-1-oxopropan-2-yl)-2-(2-(2,5-dioxo-2,5-dihydro-1H-pyrrol-1-yl)acetamido)-3-methylbutanamide [Compound 3.19, reference compound]",Drug Antibody ratio (DAR),[1]; [4],2.5
B1,HCC1954 IP10 EC50,Her2,> 1000 nM
B2,HCC1954 IP10 EC50,Her2,> 1000 nM
same,HCC1954 IP10 EC50,TROP2,> 1000 nM
same,TROP2+ 293T EC50,TROP2,> 1000 nM
B3,HCC1954 IP10 EC50,TROP2,> 1000 nM
same,TROP2+ 293T EC50,TROP2,> 1000 nM
B4,HCC1954 IP10 EC50,TROP2,8 nM
same,TROP2+ 293T EC50,TROP2,8 nM
B5,HCC1954 IP10 EC50,TROP2,2 nM
same,TROP2+ 293T EC50,TROP2,3 nM
B6,HCC1954 IP10 EC50,TROP2,5 nM
same,TROP2+ 293T EC50,TROP2,4 nM
B7,HCC1954 IP10 EC50,TROP2,8 nM
same,TROP2+ 293T EC50,TROP2,3 nM
B8,HCC1954 IP10 EC50,TROP2,6 nM
same,TROP2+ 293T EC50,TROP2,2 nM
